pKd: −log10 of the molar value.
Legend:
[1] = target: β81mut (HLA-DR1 with His→Asn substitution at position β81) (Homo sapiens, UniProt P01903+P01911, A100R/D57E/F55L/F60I/F76Y/H110N/I96L/L162R/M171V/P40L/Q125E/R42F/V115G/Y59C); assay: Fluorescence polarization dissociation measurements, β81mut; format: binding; details: FP peptide release, 37 °C, pH 5
wtDR1 = assay: Fluorescence polarization dissociation measurements, wtDR1; format: binding, human; details: FP peptide release, 37 °C, pH 5
[2] = target: HLA-DR1 with a His→Asn substitution at position β81 (human); assay: fluorescence polarisation
[3] = target: HLA-DR1 with a His→Asn substitution at position β81 (human)

Row | Substance | Stable binding allowing off-rate measurements, β81mut [1] | Stable binding allowing off-rate measurements, wtDR1 (wtDR1) | t1/2 [2] | pKd [3]
1 | P2,3 SD: HA306-319-derived peptide substituted at P2 and P3 (GPKYSDQNTLKLAT) | this was not possible | could bind in a stable fashion |  | 
2 | P3,10 DG: HA306-319-derived peptide substituted at P3 and P10 (GPKYVDQNTLKLGT) | this was not possible | could bind in a stable fashion |  | 
3 | fluorescein-labelled HA_(306-319) peptide |  |  | 77.3 h | 
4 | HA_(306-319) peptide |  |  |  | 7.30

From paper PMC3349339 (Journal of Molecular Biology, 2012)
